Test results reported in publication PMC10786891, “Massively parallel profiling of RNA-targeting CRISPR-Cas13d”.
Positions count from the first letter of the chain named. Names may count otherwise.

T1: EsCas13d, nuclease-dead (Eubacterium siraeum, UniProt B0MS50, R295A;H300A;R849A;H854A)
T1 sequence: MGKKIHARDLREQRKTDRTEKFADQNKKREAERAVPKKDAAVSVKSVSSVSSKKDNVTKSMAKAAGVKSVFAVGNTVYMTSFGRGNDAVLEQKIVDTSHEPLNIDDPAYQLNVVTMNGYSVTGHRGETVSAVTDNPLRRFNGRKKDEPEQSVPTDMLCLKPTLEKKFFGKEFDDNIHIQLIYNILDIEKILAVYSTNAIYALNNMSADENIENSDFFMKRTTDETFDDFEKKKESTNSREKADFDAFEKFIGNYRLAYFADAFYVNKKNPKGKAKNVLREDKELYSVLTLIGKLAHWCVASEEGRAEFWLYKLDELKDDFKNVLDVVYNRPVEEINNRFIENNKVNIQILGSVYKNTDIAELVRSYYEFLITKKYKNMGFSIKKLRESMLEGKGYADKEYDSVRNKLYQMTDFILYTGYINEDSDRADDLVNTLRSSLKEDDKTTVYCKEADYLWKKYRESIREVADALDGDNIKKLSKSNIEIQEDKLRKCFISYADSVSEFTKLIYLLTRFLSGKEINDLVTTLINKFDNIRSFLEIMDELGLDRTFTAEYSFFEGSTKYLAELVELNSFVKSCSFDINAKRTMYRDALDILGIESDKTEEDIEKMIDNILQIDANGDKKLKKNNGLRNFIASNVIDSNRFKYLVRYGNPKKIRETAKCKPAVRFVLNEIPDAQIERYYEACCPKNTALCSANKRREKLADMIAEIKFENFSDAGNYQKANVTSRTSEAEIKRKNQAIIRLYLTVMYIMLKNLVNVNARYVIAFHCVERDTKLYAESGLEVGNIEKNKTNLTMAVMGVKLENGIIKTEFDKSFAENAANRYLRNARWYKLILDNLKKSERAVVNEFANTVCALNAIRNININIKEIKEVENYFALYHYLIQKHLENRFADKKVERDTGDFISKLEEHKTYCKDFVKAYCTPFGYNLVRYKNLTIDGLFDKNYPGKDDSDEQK

B1: target 1 MT 5'PFS UAG 3'PFS CUG (mixed)
RNA 1: CACCCGUGCAAAAAUGCAGGGGUCUAAAACUGAGCGGAUAACCUCUCUAUGG
RNA 2: GGGAAUGGAUCCACAUCUACGAAUUCUAGCCAUAGAGAGGUUAUCCGCUCACUGAGAUCGGAAGAGCACACGU
B2: target 1 MT 5'PFS AAC 3'PFS AUA (mixed)
RNA 1: B1 RNA 1
RNA 2: B1 RNA 2 with U27A, G29C, C52A, G54A
B3: target 1 C4U,C7U (mixed)
RNA 1: B1 RNA 1
RNA 2: B1 RNA 2 with U27G, A28U, G29A, C45U, C48U, U53C
B4: target 1 MT 5'PFS UUU 3'PFS ACC (mixed)
RNA 1: B1 RNA 1
RNA 2: B1 RNA 2 with A28U, G29U, C52A, U53C, G54C
B5: target 1 MT 5'PFS CCA 3'PFS AUU (mixed)
RNA 1: B1 RNA 1
RNA 2: B1 RNA 2 with U27C, A28C, G29A, C52A, G54U
B6: target 1 MT 5'PFS UUU 3'PFS ACU (mixed)
RNA 1: B1 RNA 1
RNA 2: B1 RNA 2 with A28U, G29U, C52A, U53C, G54U
B7: target 1 MT 5'PFS GUG 3'PFS UUA (mixed)
RNA 1: B1 RNA 1
RNA 2: B1 RNA 2 with U27G, A28U, C52U, G54A
B8: target 1 MT 5'PFS UAG 3'PFS CUC (mixed)
RNA 1: B1 RNA 1
RNA 2: B1 RNA 2 with G54C
B9: target 1 MT 5'PFS CUC 3'PFS CUA (mixed)
RNA 1: B1 RNA 1
RNA 2: B1 RNA 2 with U27C, A28U, G29C, G54A
B10: target 1 MT 5'PFS CUC 3'PFS CUG (mixed)
RNA 1: B1 RNA 1
RNA 2: B1 RNA 2 with U27C, A28U, G29C
B11: target 1 MT 5'PFS GUG 3'PFS CAC (mixed)
RNA 1: B1 RNA 1
RNA 2: B1 RNA 2 with U27G, A28U, U53A, G54C
B12: target 1 G15C,G17U (mixed)
RNA 1: B1 RNA 1
RNA 2: B1 RNA 2 with U27G, A28U, G29A, G35U, G37C, U53C
B13: target 1 MT 5'PFS CCA 3'PFS UCC (mixed)
RNA 1: B1 RNA 1
RNA 2: B1 RNA 2 with U27C, A28C, G29A, C52U, U53C, G54C
B14: target 1 MT 5'PFS GUG 3'PFS CAU (mixed)
RNA 1: B1 RNA 1
RNA 2: B1 RNA 2 with U27G, A28U, U53A, G54U
B15: target 1 MT 5'PFS GGA 3'PFS UAC (mixed)
RNA 1: B1 RNA 1
RNA 2: B1 RNA 2 with U27G, A28G, G29A, C52U, U53A, G54C
B16: target 1 MT 5'PFS AAC 3'PFS AUG (mixed)
RNA 1: B1 RNA 1
RNA 2: B1 RNA 2 with U27A, G29C, C52A
B17: target 1 MT 5'PFS UCC 3'PFS UCA (mixed)
RNA 1: B1 RNA 1
RNA 2: B1 RNA 2 with A28C, G29C, C52U, U53C, G54A
B18: target 1 MT 5'PFS CCA 3'PFS UCU (mixed)
RNA 1: B1 RNA 1
RNA 2: B1 RNA 2 with U27C, A28C, G29A, C52U, U53C, G54U
B19: target 1 C2G,C6G (mixed)
RNA 1: B1 RNA 1
RNA 2: B1 RNA 2 with U27G, A28U, G29A, C46G, C50G, U53C
B20: target 1 MT 5'PFS GUG 3'PFS CAA (mixed)
RNA 1: B1 RNA 1
RNA 2: B1 RNA 2 with U27G, A28U, U53A, G54A
B21: target 1 MT 5'PFS GAG 3'PFS AAG (mixed)
RNA 1: B1 RNA 1
RNA 2: B1 RNA 2 with U27G, C52A, U53A
B22: target 1 MT 5'PFS GUG 3'PFS CAG (mixed)
RNA 1: B1 RNA 1
RNA 2: B1 RNA 2 with U27G, A28U, U53A
B23: target 1 MT 5'PFS UAG 3'PFS CUA (mixed)
RNA 1: B1 RNA 1
RNA 2: B1 RNA 2 with G54A
B24: target 1 MT 5'PFS GGA 3'PFS UAA (mixed)
RNA 1: B1 RNA 1
RNA 2: B1 RNA 2 with U27G, A28G, G29A, C52U, U53A, G54A
B25: target 1 MT 5'PFS CCA 3'PFS AUG (mixed)
RNA 1: B1 RNA 1
RNA 2: B1 RNA 2 with U27C, A28C, G29A, C52A
B26: target 1 MT 5'PFS GUG 3'PFS UUC (mixed)
RNA 1: B1 RNA 1
RNA 2: B1 RNA 2 with U27G, A28U, C52U, G54C
B27: target 1 MT 5'PFS UCC 3'PFS UCU (mixed)
RNA 1: B1 RNA 1
RNA 2: B1 RNA 2 with A28C, G29C, C52U, U53C, G54U
B28: target 1 insA 3' of 13,insA 3' of 4 (mixed)
RNA 1: B1 RNA 1
RNA 2: GGGAAUGGAUCCACAUCUACGAAUUCGUACCAUAGAGAGAGUUAUCCGCAUCACCGAGAUCGGAAGAGCACACGU
B29: target 1 MT 5'PFS CCA 3'PFS AUA (mixed)
RNA 1: B1 RNA 1
RNA 2: B1 RNA 2 with U27C, A28C, G29A, C52A, G54A
B30: target 1 MT 5'PFS GGA 3'PFS UAG (mixed)
RNA 1: B1 RNA 1
RNA 2: B1 RNA 2 with U27G, A28G, G29A, C52U, U53A
B31: target 1 MT 5'PFS GAG 3'PFS AAU (mixed)
RNA 1: B1 RNA 1
RNA 2: B1 RNA 2 with U27G, C52A, U53A, G54U
B32: target 1 MT 5'PFS UCC 3'PFS UCG (mixed)
RNA 1: B1 RNA 1
RNA 2: B1 RNA 2 with A28C, G29C, C52U, U53C
B33: target 1 MT 5'PFS CCA 3'PFS UCA (mixed)
RNA 1: B1 RNA 1
RNA 2: B1 RNA 2 with U27C, A28C, G29A, C52U, U53C, G54A
B34: target 1 MT 5'PFS GGA 3'PFS UAU (mixed)
RNA 1: B1 RNA 1
RNA 2: B1 RNA 2 with U27G, A28G, G29A, C52U, U53A, G54U
B35: target 1 MT 5'PFS CAA 3'PFS AAU (mixed)
RNA 1: B1 RNA 1
RNA 2: B1 RNA 2 with U27C, G29A, C52A, U53A, G54U
B36: target 1 MT 5'PFS UCC 3'PFS UCC (mixed)
RNA 1: B1 RNA 1
RNA 2: B1 RNA 2 with A28C, G29C, C52U, U53C, G54C
B37: target 1 MT 5'PFS AAC 3'PFS AUC (mixed)
RNA 1: B1 RNA 1
RNA 2: B1 RNA 2 with U27A, G29C, C52A, G54C
B38: target 1 MT 5'PFS GUG 3'PFS UUG (mixed)
RNA 1: B1 RNA 1
RNA 2: B1 RNA 2 with U27G, A28U, C52U
B39: target 1 insG 3' of 9,insG 3' of 1 (mixed)
RNA 1: B1 RNA 1
RNA 2: B28 RNA 2 with A40G, G41U, U43A, A44G, A50U, U51C, C52A, A53G
B40: target 1 MT 5'PFS GUG 3'PFS GUU (mixed)
RNA 1: B1 RNA 1
RNA 2: B1 RNA 2 with U27G, A28U, C52G, G54U

Target: T1, EsCas13d, nuclease-dead
Test: crRNA (strand 1, pre-loaded); Mg2+; 40 mM Tris-HCl pH 7.5, 150 mM NaCl, 6 mM MgCl2, 1 mM DTT, 0.1% Tween-20, 0.2 mg/ml BSA; 25 C; 10 min per concentration, then washed
Settings: tags: His6-TwinStrep-SUMO cleaved; N-terminal SNAP kept (SNAP-Surface 488); label: 3' end held by stalled T7 RNA polymerase

B1 and B2 are the same in Kd: 22 ± 5 nM for the first, 22 ± 8.5 nM for the second.

Going from B3 to B4, the Kd rises from 29 ± 5 nM to about 46.5 nM (1.6-fold). The first binds more tightly here.

First: B5
Second: B6
The Kd of the first is 8.1-fold lower: 2.62 ± 0.595 nM for the first, 21.2 ± 4.1 nM for the second. The first binds more tightly here.

First: B7
Second: B8
The Kd of the first is 2.8-fold lower: 10.6 ± 0.65 nM for the first, 29.5 ± 12 nM for the second. The first binds more tightly here.

B9 and B10 are within 1.5-fold of each other in Kd: about 39 nM for the first, about 27 nM for the second.

First: B11
Second: B12
The Kd of the first is 3.4-fold lower: 26.6 ± 2.8 nM for the first, 90 ± 40 nM for the second.

Compared with B13, B14 is 4.1-fold higher in Kd: about 4.5 nM for the first, 18.4 ± 2 nM for the second.

Going from B15 to B16, the Kd rises from 14 ± 6 nM to about 60 nM (4.3-fold).

Going from B17 to B18, the Kd falls from about 20 nM to 4.9 ± 2.45 nM (4.1-fold).

Going from B19 to B20, the Kd rises from 4.46 ± 0.23 nM to 31 ± 4.5 nM (7-fold). The first binds more tightly here.

Compared with B21, B22 is 2.6-fold lower in Kd: about 60 nM for the first, 22.8 ± 2 nM for the second. The second binds more tightly here.

B23 and B24 are within error of each other in Kd: 22.5 ± 4.5 nM for the first, 21.9 ± 4.9 nM for the second.

B25 and B26 are within 1.5-fold of each other in Kd: about 8.15 nM for the first, 11.6 ± 0.9 nM for the second.

First: B27
Second: B28
The Kd of the first is 6.8-fold higher: 23 ± 8 nM for the first, 3.4 ± 0.5 nM for the second.

First: B29
Second: B30
The Kd of the first is 2.9-fold lower: 6.1 ± 1.7 nM for the first, 17.6 ± 4.05 nM for the second. The first binds more tightly here.

B31 and B32 are within error of each other in Kd: 39 ± 11.5 nM for the first, 20.6 ± 7.75 nM for the second.

Compared with B33, B34 is 1.8-fold higher in Kd: 6.55 ± 1.8 nM for the first, 11.7 ± 1.5 nM for the second.

Compared with B35, B36 is 2.1-fold lower in Kd: about 25.5 nM for the first, 12.1 ± 1.9 nM for the second.

Going from B37 to B38, the Kd falls from about 25 nM to 7.86 ± 0.47 nM (3.2-fold). The second binds more tightly here.

B39 and B40 are within error of each other in Kd: 19.2 ± 2.3 nM for the first, 17.9 ± 2.75 nM for the second.
